Experimental findings from article PMC2707214 are described below.

This test deals with TolB construct MV37 (TolB Δ1–22) (E. coli) (UniProt P0A855). Description: SPR.

Take “TolAIII construct YZ48 (wild-type TolAIII) (domain or fragment)”: the dissociation constant Kd came to 4.1 µM. The result for “TolAIII construct YZ74 (TolAIII Y352H,V407E) (domain or fragment)” reads 23.6 µM.

As a reminder, the Kd is the equilibrium constant for the complex coming apart.
